Reference: article PMC4512625, “Critical role of the SPAK protein kinase CCT domain in controlling blood pressure” (Human Molecular Genetics, 2015)

Biological target: T1, Lumio-Green-labelled RFXV-motif-possessing peptide derived from WNK4 (EP4543) (not fully specified; Lumio Green fluorophore conjugated to the N-terminal linker CCPGCCGGGG)
T1 construct: N-terminal linker required for conjugating to the Lumio Green fluorophore; stretch of WNK4 with the RFQV motif; also called WNK peptide; RFXV peptide; source: synthetic peptide (GL Biochem)
T1 peptide: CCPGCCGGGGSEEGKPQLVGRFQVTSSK
Experiment: fluorescence polarisation; SPAK protein titrated against 10 nM Lumio-Green-labelled peptide; 25°C; 50 mM Tris-HCl pH 7.5, 150 mM NaCl, 2 mM DTT; one-site-specific binding model
Details: both partners purified

B1: human SPAK 452-547 with L491A (domain or fragment)
chain: not shown
notes: SPAK, human, residues 452-547 (end), the CCT domain, L491A; pGEX-6P-1 construct; GST-SPAK proteins were eluted with 20 mM glutathione and no cleavage of GST is described, so GST was probably still on the protein; also called SPAK CCT domain L491A (equivalent to L502 in mouse); source: E. coli BL21, purified (glutathione-Sepharose)
fold reduction of binding against wild-type SPAK 452-547: ~100 fold
